What was measured:
[1] = target: Stau1 dsRBD2-3-4-dd (human); assay: SEC-MALS; about 350 µg of each Stau1 construct on Superdex 200 10/300; 20 mM HEPES pH 7.5, 150 mM NaCl, 0.02% NaN3; dimer to monomers
[2] = target: the molecule itself; assay: SEC; analytical SEC of full-length Stau1 alone; monomer and dimer peaks
[3] = target: GST-UPF1 (CH domain and helicase core) (human) (UniProt Q92900); assay: pull-down; as the GST pull-down, with UPF2 added as a third purified protein
GST-UPF1CH [4] = target: T1, GST-UPF1CH (human, UniProt Q92900-2 115-272); assay: as above; details: both partners purified
T1 construct: human UPF1, N-terminal cysteine-histidine-rich (CH) domain; also called UPF1CH domain; source: E. coli BL21 (DE3) STAR pRARE, purified (Ni-NTA, heparin, SEC)
T1 sequence (looked up): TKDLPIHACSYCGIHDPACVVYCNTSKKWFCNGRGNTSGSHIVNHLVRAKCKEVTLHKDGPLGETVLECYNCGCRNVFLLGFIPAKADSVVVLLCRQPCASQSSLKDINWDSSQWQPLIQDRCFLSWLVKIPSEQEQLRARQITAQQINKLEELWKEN

GST-UPF1CH [5] = target: T1, GST-UPF1CH; assay: pull-down; GST-tagged bait and prey mixed in equal amounts, 4 °C 16 h, Glutathione Sepharose; 20 mM HEPES pH 7.5, 150 mM NaCl, 10% glycerol, 0.1% NP-40; eluted with 20 mM glutathione, SDS-PAGE and Coomassie; bands quantified with ImageJ; details: both partners purified

## Stau1 dsRBD2-3-4-dd (domain or fragment)
[1]
  stoichiometry N: 2

B1: Stau1, full length (Stau1_63, the longer isoform, 577 residues) (natural protein, human, UniProt O95793 1-577, looked up)
chain: MSQVQVQVQNPSAALSGSQILNKNQSLLSQPLMSIPSTTSSLPSENAGRPIQNSALPSASITSTSAAAESITPTVELNALCMKLGKKPMYKPVDPYSRMQSTYNYNMRGGAYPPRYFYPFPVPPLLYQVELSVGGQQFNGKGKTRQAAKHDAAAKALRILQNEPLPERLEVNGRESEEENLNKSEISQVFEIALKRNLPVNFEVARESGPPHMKNFVTKVSVGEFVGEGEGKSKKISKKNAAIAVLEELKKLPPLPAVERVKPRIKKKTKPIVKPQTSPEYGQGINPISRLAQIQQAKKEKEPEYTLLTERGLPRRREFVMQVKVGNHTAEGTGTNKKVAKRNAAENMLEILGFKVPQAQPTKPALKSEEKTPIKKPGDGRKVTFFEPGSGDENGTSNKEDEFRMPYLSHQQLPAGILPMVPEVAQAVGVSQGHHTKDFTRAAPNPAKATVTAMIARELLYGGTSPTAETILKNNISSGHVPHGPLTRPSEQLDYLSRVQGFQVEYKDFPKNNKNEFVSLINCSSQPPLISHGIGKDVESCHDMAALNILKLLSELDQQSTEMPRTGNGPMSVCGRC
notes: human Stau1, longer isoform Stau1_63, 577 residues; In rapid equilibrium between monomer and dimer in solution; source: E. coli BL21 (DE3) STAR pRARE, purified (Ni-NTA, heparin, SEC)
[2]
  stoichiometry N: 2
[3]
  fold increase of co-precipitated Stau1 on addition of UPF2: 3.3 fold
GST-UPF1CH [4]
  fold increase of co-precipitated Stau1 on addition of UPF2: 2.3 fold
GST-UPF1CH [5]
  fold lower amount bound than UPF2s: 3.3 fold
